From patent US20260234270A1, “METHODS FOR TREATING CONDITIONS USING ANTI-NMDA RECEPTOR ANTIBODIES” (Lankenau Institute for Medical Research, priority 2022, published 2026)
Entries after “also recorded” stand apart in the source; their conditions may differ.

Tests used:
[1] = test system: tinnitus; details: intratympanic injection; cited from earlier work
[2] = test system: retinal cells; details: glaucoma, elevated homocysteine; cited from earlier work
[3] = test system: monkey model of experimental glaucoma; details: cited from earlier work
[4] = test system: streptozotocin-induced diabetic mouse model; details: cited from earlier work
[5] = target: NMDAR GluN1 antigen (Mus musculus, UniProt P35438); test: Immunofluorescence staining of mouse retinas (normoxic; oxygen induced retinopathy model); type: binding; details: chimeric antibodies
[6] = target: T1, NMDAR GluN1 epitopes (Mus musculus, UniProt P35438); test: Antibody binding in mouse retina, model of retinitis pigmentosa
T1 construct: from tissue; host or cells: mouse retina, model of retinitis pigmentosa
Description: Left panels show DAPI staining, middle panels show antibody staining, right antibodies show merged imaging.

[7] = test system: amino terminal domain of GluN1; test: Competitive binding assay, Whole Cell ELISA with HEK293T-ATD cells; details: for Binding of one biotinylated mAb in the presence of increasing concentrations of the other mAb (2G6 versus 5F5): HEK293T-ATD cells, competitor 50 to 0.2 μg/mL, biotinylated mAb 5 μg/mL; for Competition of 1D1 with mixed 2G6 and 5F5 mAbs for binding to NMDAR ATD: experiments similar to Example 2
Description: We assessed the binding epitopes of the 2G6 and 5F5 mAbs. We tested whether they bind overlapping epitopes on GluN1, using a competitive binding assay with HEK293T-ATD cells, which express the amino terminal domain of GluN1. Sharma, R., Al-Saleem, F. H., Panzer, J., Lee, J., Puligedda, R. D., Felicori, L. F., Kattala, C. D., Rattelle, A. J., Ippolito, G., Cox, R. H., Lynch, D. R. and Dessain, S. K. (2018), Monoclonal antibodies from a patient with anti-NMDA receptor encephalitis. Ann Clin Transl Neurol, 5:935-951, which is incorporated herein by reference.
HEK293T-ATD cells (10^5 cells/well) were tested in a Whole Cell ELISA with luminescent detection method. We biotinylated the 5F5 and 2G6 or 5F5 using the EZ-Link™ Hydrazide-Biotin kit (Thermo Fisher), then generated dilution series of 2G6 or 5F5 (50 μg/mL to 0.2 μg/mL) and added to them the plate for 1 h at 37° C., followed by three washes with PBST. We then added the biotinylated 5F5 or 2G6 mAbs at 5 μg/mL, or PBS, and incubated for 1 h at 37° C. followed by three washes with PBST. The Pierce Streptavidin Poly-HRP substrate (Thermo Fisher) was added at 1:2000 dilution and incubated for 1 h at 37° C. This was followed by SuperSignal ELISA Femto Substrate, (1:1 ratio) (Thermo Fisher) and relative luminescence values were measured using the Synergy II plate reader. Duplicate binding curves were plotted and the linear portions were used for analysis using Excel.
We measured binding of one mAb, biotinylated, in the presence of increasing concentrations of the other.
Experiments similar to those done in Example 2 were used to test whether the 1D1 binds a site on the NMDAR ATD that overlaps 2G6 and 5F5. In these experiments, 1D1 binding was tested in competition with mixed 2G6 and 5F5 mAbs.

[8] = test system: oxygen induced retinopathy (OIR) in mice; test: Mouse oxygen induced retinopathy (OIR) model, hyperoxia induced hemorrhage; type: in vivo; details: hyperoxia P7 to P12; eye injected at P12; other eye PBS
Description: Neonatal mice were exposed to hyperoxia (75% oxygen) from postnatal day 7 (P7) to P12, and then returned to room air. Upon return to room temperature, at P12, the eye on the right was injected with 5F5 antibody against NMDAR, while the left eye in the figure was injected with PBS.
We next examined the potential effects of the NMDAR antibodies on pathological retinal neovascularization. We used the well characterized model of oxygen induced retinopathy (OIR) in mice. In this model, neonatal mice are exposed to hyperoxia (75% oxygen) from postnatal day 7 (P7) to P12, and then returned to room air. This approach, induces pathological neovascularization in the retina. In FIGS. 3A and 3B, a comparison is shown between two eyes of a mouse exposed to hyperoxia. Upon return to room temperature, at P12, the eye in FIG. 3B was injected with 5F5 antibody against NMDAR, while the eye in FIG. 3A was injected with PBS. […] This is a wholly unexpected finding.

[9] = hyperoxic conditions (75% oxygen P7 to P12, oxygen induced retinopathy model)

Molecule | Antibody binding in mouse retina [5, 9] | Antibody binding in mouse retina ([5]; normoxic conditions) | Antibody binding in mouse retina (epitope expression) [6] | Binding of one biotinylated mAb in the presence of increasing concentrations of the other mAb (2G6 versus 5F5) [7] | Competition of 1D1 with mixed 2G6 and 5F5 mAbs for binding to NMDAR ATD [7] | also measured
CN[C@]1(c2ccccc2Cl)CCCCC1=O [Esketamine] |  |  |  |  |  | Activity in treatment of tinnitus [1]: has shown activity in treatment of tinnitus
C[C@]12N[C@H](Cc3ccccc31)c1ccccc12 [MK-801] |  |  |  |  |  | Homocysteine toxicity to retinal cells via NMDAR [2]: inhibited
CC12CC3CC(C)(C1)CC(N)(C3)C2 [Memantine] |  |  |  |  |  | Retinal damage [3]: reduced retinal damage; Retinal toxicity [4]: reduce retinal toxicity
2G6: monoclonal human anti-NMDAR (GluN1) antibody; variable heavy chain SEQ ID NO: 9, light chain SEQ ID NO: 11 (antibody, listed as Mus musculus, listed as Homo sapiens, V domains shown) VH: QVQLQESGGGVVQPGRSLRLSCAASGFSFNAFAMHWVRQAPGKGLEWVARISHYGSDDYYADSVKGRFTISRDNSQNTLFLQMNSLKAEDTGVYYCWRGFTLVRGVISRNPINRFSGMDVWGQGTTVTVS VL: SYELMQPPSVSVSPGQTARITCSGDALPKKYAYWYQQKSGQAPILVIYEDNKRPSGIPERFSGSSSGTMATLTISGAQVEDEADYFCYSTDSSGNHGVFGGGTKLTVL | expressed in the mouse retina; also recorded: immunoreactive with the outer segment of the photoreceptors as well as the choriocapillaris layers of the mouse retina; also recorded: show binding in outer segments of mouse retina | None of the anti-NMDAR antibodies or the control antibody bound to mouse retina | expressed in the mouse retina | Bind Different Sites on the NMDAR | not inhibited by 1D1 | 
5F5: monoclonal human anti-NMDAR (GluN1) antibody; variable heavy chain SEQ ID NO: 1, light chain SEQ ID NO: 3; chimeric form in Examples 5-8 (antibody, listed as Mus musculus, listed as Homo sapiens, V domains shown) VH: QVQLVESGGGVVRPGGSLRLSCAASGFTFSTYSLHWVRQAPGKGLEWVGVILYDGSKKYYADSVRGRFTISRDNSKSTLNLDMSSLRPDDTAVYYCARDPIAVAPRPSGMVPQGFDYWGQGTLVTVSS VL: QSVVTQPPSASGTPGQRVTISCSGSSSNIGRNFVFWYRQLPGTAPKVLIYKNIQRPSGVPDRISGSRSGSSASLAISGLRSEDEADYYCASWDDSLSGVVFGGGTKLTVL | shows staining; also recorded: show binding in outer segments of mouse retina | None of the anti-NMDAR antibodies or the control antibody bound to mouse retina | expressed in the mouse retina | Bind Different Sites on the NMDAR | not inhibited by 1D1 | Antibody binding in mouse retina ([5]; hyperoxic conditions (75% oxygen P7 to P12, oxygen induced retinopathy model), listed as 5G5): immunoreactive with the outer segment of the photoreceptors as well as the choriocapillaris layers of the mouse retina; Retinal bleeding / pathological neovascularization of the treated eye [8]: Prevents Hyperoxia Induced Hemorrhage; also recorded: the treated eye shows no bleeding
1D1: monoclonal human anti-NMDAR (GluN1) antibody; variable heavy chain SEQ ID NO: 5, light chain SEQ ID NO: 7 (antibody, listed as Mus musculus, listed as Homo sapiens, V domains shown) VH: LVQLVESGGGVVQSGRSLRLSCAASGFAFHTFTIHWVRQAPGKGLDWVTAIYFDGTKKYYADSVKGRFTVSRDNSKNTVYLQMNGLRGEDTAVYYCARARYSYGLSFDYWGQGTPVTVSS VL: QSVVTQPPSVSAAPGQKVTISCSASSSYLGSNYVSWYQQLPGTAPKLLIYDNNKRSSGISDRFSGSKSGTSATLDITGLQTGDEADYYCGAWDSSLSVVVFGGGTKLTVL | expressed in the mouse retina; also recorded: immunoreactive with the outer segment of the photoreceptors as well as the choriocapillaris layers of the mouse retina; also recorded: show binding in outer segments of mouse retina | None of the anti-NMDAR antibodies or the control antibody bound to mouse retina |  |  | not inhibited by 2G6 and 5F5 binding | 
